Values quoted from earlier work in article PMC2783296.

Molecular target: Glu134 (UniProt position 134, VVLAIERYVVV)
Test: IR
Conditions: Photoactivated metarhodopsin II (all-trans retinal, unprotonated Schiff base)

Rhodopsin (metarhodopsin II photointermediate) (Bos taurus (inferred; species not stated in the article))
pKa: 6.3
